Experimental findings from publication PMC11997217, “Inactivation of GH3.5 by COP1-mediated K63-linked ubiquitination promotes seedling hypocotyl elongation” (Nature Communications, 2025) are described below.

The target in this assay is T1, MBP-COP1 (Arabidopsis, UniProt P43254 1-675).
T1 construct: CONSTITUTIVELY PHOTOMORPHOGENIC 1 (COP1), Arabidopsis; full-length COP1 fused with MBP-tag; The plasmid for full-length MBP-COP1 is not described in the methods; only its expression and purification are; also called CONSTITUTIVELY PHOTOMORPHOGENIC 1; full-length COP1; source: E. coli BL21, purified (amylose resin); not shown: MBP, N-terminal, kept
T1 sequence (looked up): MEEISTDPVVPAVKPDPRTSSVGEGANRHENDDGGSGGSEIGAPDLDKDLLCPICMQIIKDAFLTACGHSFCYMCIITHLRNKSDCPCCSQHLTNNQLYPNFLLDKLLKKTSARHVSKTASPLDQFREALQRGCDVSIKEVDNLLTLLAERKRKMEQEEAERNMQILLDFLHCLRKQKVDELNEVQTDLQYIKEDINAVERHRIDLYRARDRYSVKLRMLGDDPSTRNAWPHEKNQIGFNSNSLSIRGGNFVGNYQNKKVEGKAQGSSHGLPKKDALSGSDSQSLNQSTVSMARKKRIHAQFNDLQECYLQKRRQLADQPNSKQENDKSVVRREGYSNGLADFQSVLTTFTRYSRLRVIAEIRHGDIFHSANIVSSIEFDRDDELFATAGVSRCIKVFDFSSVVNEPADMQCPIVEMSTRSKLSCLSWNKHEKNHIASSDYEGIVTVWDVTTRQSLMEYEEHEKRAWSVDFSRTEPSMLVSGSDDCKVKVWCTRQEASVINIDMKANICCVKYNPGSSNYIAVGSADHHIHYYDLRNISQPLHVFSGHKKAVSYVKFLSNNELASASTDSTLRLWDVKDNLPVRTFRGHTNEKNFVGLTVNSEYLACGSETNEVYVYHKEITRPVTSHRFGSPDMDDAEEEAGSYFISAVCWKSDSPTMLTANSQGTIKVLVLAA
The experiment in a line: pull-down; 1 μg GST-GH3.5 and 1 μg MBP-tagged COP1 in 25 mM Tris-HCl pH 7.5, 100 mM NaCl, 0.25% NP40, 4 °C; captured on amylose resin; washed with 500 mM NaCl, 0.5% NP40; blots with anti-MBP and anti-GST. The settings on record: both partners purified.

B1: GST-GH3.5 (enzyme, Arabidopsis, UniProt O81829 1-612, looked up)
chain: MPEAPKKESLEVFDLTLDQKNKQKLQLIEELTSNADQVQRQVLEEILTRNADVEYLRRHDLNGRTDRETFKNIMPVITYEDIEPEINRIANGDKSPILSSKPISEFLTSSGTSGGERKLMPTIEEELDRRSLLYSLLMPVMSQFVPGLENGKGMYFLFIKSESKTPGGLPARPVLTSYYKSSHFKERPYDPYTNYTSPNETILCSDSYQSMYSQMLCGLCQHQEVLRVGAVFASGFIRAIKFLEKHWIELVRDIRTGTLSSLITDPSVREAVAKILKPSPKLADFVEFECKKSSWQGIITRLWPNTKYVDVIVTGTMSQYIPTLDYYSNGLPLVCTMYASSECYFGVNLRPLCKPSEVSYTLIPSMAYFEFLPVHRNNGVTNSINLPKALTEKEQQELVDLVDVKLGQEYELVVTTYAGLCRYRVGDLLRVTGFKNKAPQFSFICRKNVVLSIDSDKTDEVELQNAVKNAVTHLVPFDASLSEYTSYADTSSIPGHYVLFWELCLDGNTPIPPSVFEDCCLAVEESFNTVYRQGRVSDKSIGPLEIKIVEPGTFDKLMDYAISLGASINQYKTPRCVKFAPIIELLNSRVVDSYFSPKCPKWVPGHKQWGSN
notes: the GH3.5 CDS inserted into BamHI/EcoRI of pGEX4T-1; also called GRETCHEN HAGEN 3.5; source: E. coli BL21, purified (Glutathione Sepharose 4B); not shown: GST, N-terminal, kept
Consider B1, for which the binding result was “binds”.
